Details in all cases: Homo sapiens; call rule not given here
Substrate in data set [1]: Nc1ncnc2c1ncn2[C@@H]1O[C@H](COP(=O)(O)O)[C@@H](O)[C@H]1O
Description: (§1) Ratio of Kcat to Km for recombinant AK1 (unknown origin).

Substrate in data set [2]: Nc1ncnc2c1ncn2-c1ccc(COCP(=O)(O)O)o1
The description is as §1.

Substrate in data set [3]: Nc1ncnc2c1ncn2CCOCP(=O)(O)O
The description is as §1.

Substrate in data set [4]: C[C@H](Cn1cnc2c(N)ncnc21)OCP(=O)(O)O
The data set is described as §1.

Substrate in data set [5]: Nc1ncnc2c1ncn2-c1ccc(CO)o1
The data set is described as §1.

Substrate in data set [6]: Nc1ncnc2c1ncn2[C@H]1C[C@H](O)[C@@H](COP(=O)(O)O)O1
The data set is described as §1.

Substrate in data set [7]: Nc1ncnc2c1ncn2[C@@H]1O[C@H](COP(=O)(O)O)[C@@H](O)[C@H]1O
Description: (§2) Activity of recombinant AK1 (unknown origin) assessed as ADP formation by spectroscopic pyruvate kinase/lactate dehydrogenase coupled assay.

Substrate in data set [8]: Nc1ncnc2c1ncn2-c1ccc(COCP(=O)(O)O)o1
The data set is described as §2.

Substrate in data set [9]: Nc1ncnc2c1ncn2CCOCP(=O)(O)O
The description is as §2.

Substrate in data set [10]: C[C@H](Cn1cnc2c(N)ncnc21)OCP(=O)(O)O
The description is as §2.

Substrate in data set [11]: Nc1ncnc2c1ncn2-c1ccc(CO)o1
The data set is described as §2.

Substrate in data set [12]: Nc1ncnc2c1ncn2[C@H]1C[C@H](O)[C@@H](COP(=O)(O)O)O1
Described as §2.

B1: Adenylate kinase isoenzyme 1 (Homo sapiens), P00568 (protein)
chain: MEEKLKKTKIIFVVGGPGSGKGTQCEKIVQKYGYTHLSTGDLLRSEVSSGSARGKKLSEIMEKGQLVPLETVLDMLRDAMVAKVNTSKGFLIDGYPREVQQGEEFERRIGQPTLLLYVDAGPETMTQRLLKRGETSGRVDDNEETIKKRLETYYKATEPVIAFYEKRGIVRKVNAEGSVDSVFSQVCTHLDALK
Take B1: the kcat/Km in [1] is 2.85 ×10⁶ /M/s; in data set [2], “Not Active”; in data set [3] it was 14 ×10⁶ /M/s; in data set [4], 75 M⁻¹ s⁻¹; in data set [5], “Not Active”; in data set [6] it was 0.16 ×10⁶ /M/s. The Km was 175 µM in [7]; “Not Active” in [8]; 6000 µM in data set [9]; 3000 µM in data set [10]; “Not Active” in data set [11]; 1500 µM in [12]. Further, the kcat was 500 s⁻¹ in [7]; “Not Active” in data set [8]; 0.08 s⁻¹ in [9]; 0.22 s⁻¹ in data set [10]; “Not Active” in data set [11]; 240 s⁻¹ in data set [12].
